B1: SNAP91 (parent)
chain: FAAPSPATTASPAKVDSSGVIDLF

Variants of: B1
Assay: protein stability index of a GFP-peptide fusion (GPS, HEK-293T) (PSI 1-6); higher = more stable
Settings: c terminus: a fixed tail appended
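Further: lentivirally expressed fusions sorted by FACS into six bins by GFP to DsRed ratio, PSI derived from sequencing read proportions per bin multiplied by bin number.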

Protein stability index: each site, then its substitutions
P12: V 2.09 | E 2.97 | I 2.08 | L 2.49 | F 1.8 | C 1.85 | A 2.19 | Y 1.97 | H 2.27 | D 2.6 | T 2.15 | M 2.17 | N 2.6 | G 1.92 | Q 2.6 | W 2.04 | R 2.2 | S 2.32 | K 1.96
T8: C 2.56 | Y 1.94 | S 2.52 | N 2.58 | V 2.85 | K 2.42 | I 2.85 | Q 2.54 | D 2.65 | E 2.23 | W 2.33 | A 2.62 | M 2.7 | G 2.3 | R 2.24 | H 3.12 | L 2.27 | F 1.33
A13: C 2.29 | D 2.71 | Q 2.37 | S 2.25 | L 2.43 | F 2.01 | T 2.33 | K 3.05 | P 3.09 | M 2.31 | W 2.12 | H 2.3 | R 2.34 | Y 1.83 | V 2.79 | N 2.38 | I 1.92 | G 1.98 | E 2.61
I21: K 3.79 | W 1.88 | L 2.65 | G 3.64 | H 2.51 | R 3.23 | Q 3.05 | T 3.07 | A 2.49 | S 3.37 | V 3.22 | P 2.8 | N 4.12 | F 2.25 | M 3.15 | E 3.96 | D 3.96 | Y 2.11 | C 2.63
P6: G 2.31 | T 2.23 | K 2.16 | N 2.94 | D 3.01 | L 1.49 | V 1.82 | A 2.18 | H 2.36 | Q 2.63 | W 2.35 | E 3.08 | S 2.65 | I 1.84 | F 2.02 | R 1.95 | C 2.32 | Y 1.7 | M 2.44
S11: G 2.45 | V 2.38 | R 2.45 | Y 2.35 | K 2.6 | C 2.14 | D 2.73 | E 2.69 | I 2.3 | T 2.48 | M 2.28 | F 1.96 | H 2.08 | A 2.47 | W 1.33 | Q 2.56 | L 2.77 | N 2.38
V20: Y 2.07 | K 2.78 | C 2.08 | F 1.56 | L 2.57 | W 1.54 | T 2.51 | S 2.43 | D 3.22 | M 2.5 | R 2.63 | G 2.77 | P 2.79 | N 2.77 | H 2.72 | E 3.42 | A 2.45 | I 2.25 | Q 2.96
A10: F 1.92 | L 2.74 | I 2.42 | Y 1.72 | G 1.64 | V 2.94 | H 2.29 | K 2.23 | R 1.99 | W 2.84 | D 2.57 | Q 2.27 | S 2.32 | T 2.36 | N 2.59 | M 2.24 | E 2.56 | C 1.94
S18: C 2.1 | V 2.1 | G 2.56 | N 2.43 | Y 1.66 | I 1.9 | Q 2.49 | K 2.46 | M 2.06 | F 1.67 | A 2.29 | T 2.49 | R 2.11 | L 2.23 | H 2.12 | W 1.37 | E 2.72 | P 2.83 | D 2.97
A7: H 2.7 | K 2.65 | C 1.75 | D 2.25 | V 2.53 | R 2.36 | L 1.9 | N 2.46 | T 2.11 | S 2.49 | E 3.06 | W 3 | F 2.65 | P 2.62 | G 2.85 | M 2.23 | Y 2.54 | I 2.1 | Q 2.84
V15: A 2.52 | N 2.52 | H 2.32 | Y 1.98 | I 2.24 | S 2.93 | D 2.68 | T 2.82 | G 2.41 | P 2.65 | M 2.56 | F 1.97 | K 2.92 | R 2.6 | W 2.1 | L 2.23 | C 1.97 | Q 2.04 | E 3.03
S5: N 2.59 | Q 2.34 | V 2.64 | W 2.62 | Y 1.96 | R 2.1
D16: L 2.6 | K 2.17 | H 2.82 | I 1.99 | M 1.92 | Q 1.9 | W 1.46 | S 1.91 | N 2.53 | G 2.11 | F 1.68 | V 2.3 | E 2.17 | Y 1.53 | P 2.19 | R 2.03 | T 2.54 | C 1.54 | A 1.9
T9: D 3.22 | S 2.77 | L 2.25 | E 2.77 | Y 1.67 | I 2.16 | G 2.28 | Q 2.46 | K 2.91 | A 3.02 | M 2.31 | W 3.89 | F 1.63 | N 2.58 | H 2.66 | V 2.61 | C 2.43 | R 2.42
D22: H 1.94 | F 2.93 | S 1.76 | Q 2.26 | N 2.24 | A 2.03 | V 1.75 | G 1.75 | P 2.68 | K 2.11 | L 2.57 | T 1.73 | M 2.81 | E 2.46 | R 1.87 | Y 2.04
G19: V 2.07 | Q 2.69 | M 1.92 | N 2.59 | T 2.57 | P 2.06 | S 2.58 | R 2.44 | W 1.55 | K 2.38 | C 1.83 | A 2.56 | H 2.4 | D 2.94 | Y 1.58 | L 2.24 | E 2.84 | F 1.26 | I 1.41
L23: D 4.69 | P 3.74 | I 2.51 | G 3.51 | C 2.79 | E 4.4 | K 4.12 | F 2.29 | H 4.27 | A 3.78 | M 3.25 | N 4.14
S17: W 1.63 | M 2.16 | C 1.86 | K 2.29 | I 1.7 | F 2.21 | P 2.39 | H 2.71 | E 2.45 | Y 2.7 | A 2.55 | V 2.17 | D 2.55 | R 2.27 | G 2.33 | N 2.78 | L 1.96 | Q 2.52 | T 2.43
K14: E 2.81 | S 2.29 | C 2.41 | M 2.3 | Y 2.24 | W 1.58 | Q 2.48 | I 2.61 | H 2.46 | V 2.77 | D 2.47 | F 1.86 | A 2.94 | P 2.7 | L 2.28 | R 2.28 | T 2.38 | N 2.52 | G 2.05

From the supplement of paper PMC10567573
